T1: human C1s mutant M5 (K336G) (human, UniProt P09871 16-688)
T1 construct: The entry is the mutant itself
T1 sequence: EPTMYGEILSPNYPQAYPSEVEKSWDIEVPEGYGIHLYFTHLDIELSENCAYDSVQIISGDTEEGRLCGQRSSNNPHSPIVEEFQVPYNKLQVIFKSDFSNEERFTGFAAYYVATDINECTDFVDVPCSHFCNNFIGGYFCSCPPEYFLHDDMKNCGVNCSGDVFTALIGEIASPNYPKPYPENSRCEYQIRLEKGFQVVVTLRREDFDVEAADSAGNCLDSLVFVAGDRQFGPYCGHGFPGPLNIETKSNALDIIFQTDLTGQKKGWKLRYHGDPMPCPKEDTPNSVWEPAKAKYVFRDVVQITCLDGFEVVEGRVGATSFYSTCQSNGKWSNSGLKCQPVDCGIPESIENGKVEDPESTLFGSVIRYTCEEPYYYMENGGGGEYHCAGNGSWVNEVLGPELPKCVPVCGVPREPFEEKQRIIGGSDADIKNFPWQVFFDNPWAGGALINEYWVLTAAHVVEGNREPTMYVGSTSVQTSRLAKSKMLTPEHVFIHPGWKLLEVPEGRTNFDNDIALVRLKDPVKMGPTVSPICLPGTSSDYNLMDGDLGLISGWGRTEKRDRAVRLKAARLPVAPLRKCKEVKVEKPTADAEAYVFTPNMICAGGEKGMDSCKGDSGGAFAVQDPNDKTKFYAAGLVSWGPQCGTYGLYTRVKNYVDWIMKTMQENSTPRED

T2: human C1s mutant M9 (K336G, D343Y & E351A) (human, UniProt P09871 16-688)
T2 construct: The entry is the mutant itself
T2 sequence: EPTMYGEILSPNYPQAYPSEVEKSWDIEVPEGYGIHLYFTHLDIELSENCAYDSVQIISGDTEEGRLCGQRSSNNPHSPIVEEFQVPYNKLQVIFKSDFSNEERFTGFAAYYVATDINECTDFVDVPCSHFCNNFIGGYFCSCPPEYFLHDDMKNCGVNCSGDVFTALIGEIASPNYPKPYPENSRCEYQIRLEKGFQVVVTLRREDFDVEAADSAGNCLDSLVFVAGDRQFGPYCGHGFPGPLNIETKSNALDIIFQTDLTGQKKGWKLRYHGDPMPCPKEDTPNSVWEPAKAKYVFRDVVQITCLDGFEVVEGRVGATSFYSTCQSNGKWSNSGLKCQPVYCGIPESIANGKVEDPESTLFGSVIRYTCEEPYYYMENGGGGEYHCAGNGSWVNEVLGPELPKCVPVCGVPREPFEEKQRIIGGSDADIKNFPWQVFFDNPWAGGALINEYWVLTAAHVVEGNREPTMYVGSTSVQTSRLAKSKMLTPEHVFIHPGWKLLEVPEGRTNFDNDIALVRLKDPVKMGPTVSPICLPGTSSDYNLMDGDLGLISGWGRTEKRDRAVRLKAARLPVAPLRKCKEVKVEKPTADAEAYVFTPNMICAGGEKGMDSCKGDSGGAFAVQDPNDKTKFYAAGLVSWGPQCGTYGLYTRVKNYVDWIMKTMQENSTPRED

B1: Anti-C1s antibody hz2-7(H1L2) (antibody, V domains shown)
VH: EVQLLESGGGLVQPGGSLRLSCAASGFTFSNYFMNWVRQAPGKGLEWVSEIRLKFTNYATHYADSVKGRFTISRDDSKSTLYLQMNSLRAEDTAVYYCTRDYGSRNGYFDYWGQGTLVTVSS
VL: DIVMTQTPLSLPVTPGEPASISCRSSKSLLHSNGNTFLYWFLQKPGQSPQLLIYRMSNLASGVPDRFSGSGSGTDFTLKISRVEAEDVGVYYCMQHLEYPYTFGGGTKLEIKR
notes: Humanized, human IgG1 / kappa; also called hz2-7(1L2)
B2: Anti-C1s antibody hz2-8 (H1L2 G80A/T82A) (antibody, V domains shown)
VH: QVQLVQSGAEVKKPGASVKVSCKASGFNIKEYYMHWVRQAPEQGLEWMGWIDPENADAIYAQKFQGRVTITADTSTNTAYMELSSLRSEDTAVYYCARSRLFFAYWGQGTLVTVSS
VL: DIQMTQSPKSLSASVGDRVTITCRASQDVRTALDWYQQKPGQSPKLLIYSASYRYSGVPSRFSGSGSGTDFTLTISSLQPEDFATYYCQQQYTTPYTFGQGTKLEIKR
notes: Humanized variant with G80A and T82A in HC CDR2 (already in the entry), human IgG1 / kappa

What was measured:
[1] = target: T1, human C1s mutant M5 (K336G); experiment: ELISA, plate coated with human C1s mutant M5: K336G, OD450nm
Experimental: (§1) ELISA was carried out by first coating 96-well plates with 200 ng/well of full-length or truncated C1s proteins overnight. The next morning, plates were blocked with SuperBlock T20 blocking buffer (Thermo Scientific 37536) for 1 h with gentle shaking. Then, various concentrations of anti-C1s antibodies diluted in SuperBlock T20 blocking buffer were added to the plates and incubated for 1 h with gentle shaking. Mouse IgG (Sigma-Aldrich 15381) and human IgG1 (BioXCell BP0297) were used as negative controls. The plates were washed before incubating with HRP conjugated secondary antibodies diluted in SuperBlock T20 blocking buffer (goat anti-mouse IgG (H+L) cross-adsorbed secondary antibody HRP (Invitrogen G-21040) or goat anti-human IgG antibody, HRP conjugate (Millipore AP309P)) for 1 h with gentle shaking. At last, the plates were washed and color developed with ELISA liquid HRP substrate (Sigma-Aldrich), followed by stopping the reaction with addition of 1M H₂SO₄ in the same volume as the ELISA liquid substrate. Bound antibody was measured by absorbance at OD₄₅₀ₙₘ.
(§2) Binding of anti-C1s antibodies to mutants M1-M20 of human C1s was measured by ELISA as described in Example 4, and results are shown in FIGS. 6B-6U. […]

[2] = target: T2, human C1s mutant M9 (K336G, D343Y & …); experiment: ELISA, plate coated with human C1s mutant M9: K336G, D343Y, E351A, OD450nm
Experimental: as §1, §2

Binder | EC50 [1] [µg/mL] | binding result [2]
B1 | 0.015 | –
B2 | – | no binding (tested: 1000 ng/ml (Log 3))

Reference: patent publication US20230051715A1 (MABWELL THERAPEUTICS, published 2023)
